Here are results for four molecules from article PMC5570508, “Structural analysis of P. falciparum KAHRP and PfEMP1 complexes with host erythrocyte spectrin suggests a model for cytoadherent knob protrusions” (PLoS Pathogens, 2017).

In this test the target is T1, spectrin β chain domains 10–14 (human, UniProt P11277 1272-1804).
T1 construct: human erythrocyte β spectrin, UniProt P11277, residues 1272-1804; also called β10–14; source: E. coli Rosetta2(DE3), purified (Talon, Q-Sepharose, Superdex 75 or 200); not shown: His10 or His6 (modified pET16b or pET15b), N-terminal, cleaved
T1 sequence (looked up): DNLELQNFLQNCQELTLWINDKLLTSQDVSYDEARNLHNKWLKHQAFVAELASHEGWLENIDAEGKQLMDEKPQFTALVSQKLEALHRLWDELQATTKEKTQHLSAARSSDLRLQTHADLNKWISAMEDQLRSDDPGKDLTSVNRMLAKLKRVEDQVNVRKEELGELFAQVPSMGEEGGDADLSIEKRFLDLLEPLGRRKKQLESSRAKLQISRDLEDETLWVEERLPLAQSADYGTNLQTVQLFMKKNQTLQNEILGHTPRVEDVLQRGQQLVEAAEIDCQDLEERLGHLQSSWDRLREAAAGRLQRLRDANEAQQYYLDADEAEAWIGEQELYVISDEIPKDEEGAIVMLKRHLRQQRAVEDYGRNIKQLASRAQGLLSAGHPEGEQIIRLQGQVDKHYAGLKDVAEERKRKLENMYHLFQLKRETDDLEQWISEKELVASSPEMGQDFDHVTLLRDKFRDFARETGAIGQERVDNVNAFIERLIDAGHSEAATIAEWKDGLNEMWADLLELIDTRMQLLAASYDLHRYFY
Put plainly: fluorescence polarisation; titration: 5-FAM-labeled protein at 0.5 or 1 μM titrated with unlabeled protein; 20°C; analysis buffer (20 mM NaH2PO4, 50 mM NaCl, 1 mM DTT pH 7); single site binding model. Conditions: both partners purified.

B1: KAHRP 5´-repeat scrambled sequence, Scramble 1 (peptide)
chain: CGGSDNSEKNKKEHKKEKSAHEKEKDKKAEHKKDKDGSKKSSEKKKNSTKEHESSEHNHSEHKKSDNHKKKKENKEDDSEKEKNKKSDVVSDNKKTHKKGGKKKSKPKGNKSVHD
modifications: 5-carboxyfluorescein (5-FAM) on a single cysteine at the protein N-terminus
notes: amino acid content of the KAHRP 5´ repeat, randomly scrambled; also called scrambled peptide; source: E. coli, recombinant, purified as the KAHRP fragments; not shown: His10, N-terminal, cleaved
Consider B1, for which the binding result is given as “binds”.

B2: KAHRP 5´-repeat scrambled sequence, Scramble 2 (peptide)
chain: CEKSDDKKESKSKHDGSVKKKSEEKKKDNESSTKSDGKNKKNKKHNEHESKHEHKGEGKKKEHGSNEDHKKKNDNEVKGKHKKSPKKKAETKKNSSHDSDKKEKDSSKKVHNEAK
modifications: 5-carboxyfluorescein (5-FAM) on a single cysteine at the protein N-terminus
notes: as for B1
As to B2, the binding result was “binds”.

B3: KAHRP 5´-repeat scrambled sequence, Scramble 3 (peptide)
chain: CHDNKGKKSHDSSGDKKHKNKKSKKKKESPTVDKKEKHEVKKKHKNKKDDVHSEEASKEENKKTEKGKNEKESNAKKSKNSHHDSKKGKEHEGSSKNKDHDKKEKNSDESKKGES
modifications: 5-carboxyfluorescein (5-FAM) on a single cysteine at the protein N-terminus
notes: as for B1
Turning to B3, the binding result was “binds”.

B4: KAHRP 5´-repeat scrambled sequence, Scramble 4 (peptide)
chain: CESNKKNGHEKGGKKSESKHKKKDHAEKEPKNKKGAHHDDSDKSKTKHNSESDEKVHKSESKEKSKDKVGNKGKEKKVSNSEKKDKNKKDHSHSKETKEKDEKDKKHKSSNKENK
modifications: 5-carboxyfluorescein (5-FAM) on a single cysteine at the protein N-terminus
notes: as for B1
With B4, the binding result is “binds”.
